Molecular target: human GPR49 (LGR5), on cells (human) (UniProt O75473)
Test: cell-based or functional assay

Sequence of UniProt O75473 (O75473 22-907 limits assumed): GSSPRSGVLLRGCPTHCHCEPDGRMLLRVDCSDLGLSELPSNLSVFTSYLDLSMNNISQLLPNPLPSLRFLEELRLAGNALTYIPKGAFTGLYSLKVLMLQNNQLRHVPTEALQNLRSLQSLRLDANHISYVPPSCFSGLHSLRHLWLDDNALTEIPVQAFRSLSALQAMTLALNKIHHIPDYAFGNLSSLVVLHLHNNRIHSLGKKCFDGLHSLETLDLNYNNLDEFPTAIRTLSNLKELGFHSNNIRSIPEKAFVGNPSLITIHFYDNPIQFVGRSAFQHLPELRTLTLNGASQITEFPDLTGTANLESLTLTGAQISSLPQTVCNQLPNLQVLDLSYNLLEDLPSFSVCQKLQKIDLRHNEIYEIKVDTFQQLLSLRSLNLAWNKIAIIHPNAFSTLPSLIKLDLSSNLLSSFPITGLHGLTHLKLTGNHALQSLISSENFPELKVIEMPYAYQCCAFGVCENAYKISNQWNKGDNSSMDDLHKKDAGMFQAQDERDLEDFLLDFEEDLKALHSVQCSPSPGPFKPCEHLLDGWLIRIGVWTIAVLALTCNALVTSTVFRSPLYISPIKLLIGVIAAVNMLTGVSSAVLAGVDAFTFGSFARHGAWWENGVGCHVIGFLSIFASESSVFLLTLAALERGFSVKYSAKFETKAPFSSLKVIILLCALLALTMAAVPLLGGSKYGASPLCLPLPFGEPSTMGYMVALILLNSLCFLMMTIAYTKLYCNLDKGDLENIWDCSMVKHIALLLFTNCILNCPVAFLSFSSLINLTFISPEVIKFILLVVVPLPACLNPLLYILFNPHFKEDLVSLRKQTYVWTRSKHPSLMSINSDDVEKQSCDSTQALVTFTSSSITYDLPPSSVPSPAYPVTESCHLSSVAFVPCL

increase in proliferation of GPR49-3T3 clone 28: 4 fold
Substance: R-spondin 1 (ligand)
